In article PMC3152347 one finds binding result and stoichiometry N data, which are given here for five molecules.

Like-named read-outs stand apart in the source and are kept apart here.

For data set [1], the target named is T1, His-HSF1 (human, UniProt Q00613 1-529). The data set can be described thus: EMSA. (Mobility shift assays separate free from complexed probe on a gel.)
Data set [2] addresses T1, His-HSF1. The data set is described as follows: EMSA. The source holds these as a separate data set.
Data set [3] has as its target T2, endogenous HSF1 of CEM-GFP cells (human (endogenous in CEM-GFP)), Q00613.
T2 chain: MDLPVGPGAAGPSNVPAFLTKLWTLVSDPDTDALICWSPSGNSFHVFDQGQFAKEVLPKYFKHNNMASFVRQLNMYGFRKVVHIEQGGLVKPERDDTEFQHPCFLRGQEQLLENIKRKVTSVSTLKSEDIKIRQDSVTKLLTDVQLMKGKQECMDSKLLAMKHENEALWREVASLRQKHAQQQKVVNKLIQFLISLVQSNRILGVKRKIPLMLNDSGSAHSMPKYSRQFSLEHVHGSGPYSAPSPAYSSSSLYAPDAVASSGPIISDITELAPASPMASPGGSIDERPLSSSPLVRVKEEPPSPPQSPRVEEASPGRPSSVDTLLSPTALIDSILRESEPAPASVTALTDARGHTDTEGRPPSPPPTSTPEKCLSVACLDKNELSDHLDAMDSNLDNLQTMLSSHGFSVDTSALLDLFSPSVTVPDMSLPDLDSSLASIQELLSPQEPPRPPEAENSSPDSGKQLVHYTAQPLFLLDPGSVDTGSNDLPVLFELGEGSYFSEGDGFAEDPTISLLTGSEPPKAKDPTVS
The data set can be described thus: cross-linking. Conditions: remark: other sources report otherwise.

B1: P1 (both NF-kB sites of LTR) (dsDNA)
DNA 1: GGGACTTTCCGCTGGGGACTTTCC
DNA 2: GGAAAGTCCCCAGCGGAAAGTCCC
On to B1, for which the binding result in data set [1] is “no binding”.

B2: P2 (NF-kB and 3rd Sp1 site, LTR -91 to -69) (dsDNA)
DNA 1: GGGACTTTCCAGGGAGGTGTGGC
DNA 2: GCCACACCTCCCTGGAAAGTCCC
For B2, the binding result in data set [2] is “binds”.

B3: P3 (1st and 2nd Sp1 site) (dsDNA)
DNA 1: TGGGCGGGACTGGGGAGTGGCG
DNA 2: CGCCACTCCCCAGTCCCGCCCA
For B3, in data set [1], the binding result is given as “no binding”.

B4: P4 (2nd and 3rd Sp1 site) (dsDNA)
DNA 1: GGGAGGTGTGGCCTGGGCGGGAC
DNA 2: GTCCCGCCCAGGCCACACCTCCC
Take B4: the binding result in data set [1] is reported as “no binding”.

B5: endogenous HSF1 of CEM-GFP cells, Q00613 1-529 (natural protein)
chain: T2 chain
B5: the stoichiometry N (usually the number of molecules, sites or subunits per partner or assembly) in data set [3] was 3.
